# Test results published in paper PMC6859894 (Nature, 2019).
# Like-named read-outs stand apart in the source and are kept apart here.
# B1: chicken STING (Gallus gallus), full-length, C-terminal Flag tag (natural protein, chicken (Gallus gallus), UniProt E1C7U0 1-379, looked up)
# chain: MPQDPSTRSSPARLLIPEPRAGRARHAACVLLAVCFVVLFLSGEPLAPIIRSVCTQLAALQLGVLLKGCCCLAEEIFHLHSRHHGSLWQVLCSCFPPRWYLALLLVGGSAYLDPPEDNGHSPRLALTLSCLCQLLVLALGLQKLSAVEVSELTESSKKNVAHGLAWSYYIGYLKVVLPRLKECMEELSRTNPMLRAHRDTWKLHILVPLGCDIWDDLEKADSNIQYLADLPETILTRAGIKRRVYKHSLYVIRDKDNKLRPCVLEFASPLQTLCAMSQDDCAAFSREQRLEQARLFYRSLRDILGSSKECAGLYRLIAYEEPAEPESHFLSGLILWHLQQQQREEYMVQEELPLGTSSVELSLQVSSSDLPQPLRSDCP
# Columns and labels:
# cryo-EM structure [1] = biological target: the molecule itself; assay: cryo-EM structure
# cryo-EM structure [2] = biological target: the molecule itself; assay: cryo-EM structure; remark: listed apart in the source
protein,measurement,setting,value
B1,ratio of dimer to higher-order oligomers in the micrographs,cryo-EM structure [1],~4 dimer : higher-order oligomers
same,stoichiometry N,cryo-EM structure [1],4
same,stoichiometry N,cryo-EM structure [2],2
